Laboratory results reported in US20110039770A1 (PHARMAGAP, published 2011).

What was measured:
[1] = molecular target: T1, PKC-ε, purified isoform (UniProt Q02156 1-737); assay: competition ELISA on coated purified PKC-ε vs anti-PKC ε antibody; PRE 200 µM
T1 construct: also called PKC-epsilon; epsilon
T1 sequence (looked up): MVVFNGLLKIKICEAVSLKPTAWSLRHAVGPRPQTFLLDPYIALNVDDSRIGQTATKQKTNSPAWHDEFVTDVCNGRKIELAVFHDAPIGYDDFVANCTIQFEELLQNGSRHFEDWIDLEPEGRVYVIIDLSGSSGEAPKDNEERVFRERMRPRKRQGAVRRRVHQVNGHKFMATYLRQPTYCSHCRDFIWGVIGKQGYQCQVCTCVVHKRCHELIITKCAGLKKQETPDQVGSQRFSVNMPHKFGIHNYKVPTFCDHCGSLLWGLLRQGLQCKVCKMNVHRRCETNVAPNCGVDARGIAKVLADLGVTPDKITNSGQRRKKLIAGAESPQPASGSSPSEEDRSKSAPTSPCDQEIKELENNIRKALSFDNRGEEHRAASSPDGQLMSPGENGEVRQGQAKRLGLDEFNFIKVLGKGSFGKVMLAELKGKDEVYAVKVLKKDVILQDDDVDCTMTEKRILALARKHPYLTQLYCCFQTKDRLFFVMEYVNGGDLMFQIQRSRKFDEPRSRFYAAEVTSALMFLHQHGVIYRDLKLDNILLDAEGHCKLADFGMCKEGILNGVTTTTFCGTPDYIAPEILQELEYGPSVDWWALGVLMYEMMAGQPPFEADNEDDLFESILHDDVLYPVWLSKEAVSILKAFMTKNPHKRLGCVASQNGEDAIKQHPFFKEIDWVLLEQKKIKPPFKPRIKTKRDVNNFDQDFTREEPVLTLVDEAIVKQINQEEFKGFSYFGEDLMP

[2] = molecular target: T2, PKC-βI in extracts of human cell lines (human, UniProt P05771-1 2-671); assay: Western-blot competition, cell extracts: PRE at 10X/20X the anti-PKC beta I primary antibody concentration competes with that antibody; band densitometry (lower band = PRE bound)
T2 construct: Denatured on the Western blot membrane; beta I splice form; also called PKC-beta I (cell extract)

[3] = molecular target: T3, PKC-ζ in extracts of human cell lines (human, UniProt Q05513 1-592); assay: Western-blot competition, cell extracts: PRE at 10X/20X the anti-PKC zeta primary antibody concentration competes with that antibody; band densitometry (lower band = PRE bound)
T3 construct: Denatured on the Western blot membrane; also called PKC-zeta (cell extract)
T3 sequence (looked up): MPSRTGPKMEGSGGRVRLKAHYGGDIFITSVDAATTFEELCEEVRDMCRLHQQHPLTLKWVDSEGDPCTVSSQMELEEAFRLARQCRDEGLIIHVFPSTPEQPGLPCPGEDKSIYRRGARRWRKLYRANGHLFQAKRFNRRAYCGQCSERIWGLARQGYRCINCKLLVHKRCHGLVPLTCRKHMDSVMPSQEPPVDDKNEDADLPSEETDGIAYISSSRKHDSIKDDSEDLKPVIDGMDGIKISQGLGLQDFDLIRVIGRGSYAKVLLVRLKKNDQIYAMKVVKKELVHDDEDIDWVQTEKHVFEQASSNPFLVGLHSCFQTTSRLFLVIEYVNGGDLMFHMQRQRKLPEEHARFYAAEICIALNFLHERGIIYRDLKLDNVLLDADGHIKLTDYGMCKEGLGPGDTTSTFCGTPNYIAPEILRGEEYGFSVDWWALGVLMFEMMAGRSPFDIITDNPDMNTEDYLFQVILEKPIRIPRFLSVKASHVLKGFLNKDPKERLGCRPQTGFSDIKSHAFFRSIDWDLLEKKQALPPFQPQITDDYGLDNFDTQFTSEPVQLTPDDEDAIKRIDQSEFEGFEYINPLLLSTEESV

[4] = molecular target: T1, PKC-ε, purified isoform; assay: competition ELISA on coated purified PKC-ε vs anti-PKC ε antibody; PRE 100 µM
[5] = molecular target: T4, PKC-α, purified isoform (UniProt P17252 1-672); assay: purified isoform competition ELISA, summary grade
T4 construct: also called PKC-alpha; protein kinase C alpha

[6] = molecular target: T1, PKC-ε, purified isoform; assay: purified isoform competition ELISA, summary grade
[7] = molecular target: T5, PKC-βI, purified isoform (UniProt P05771-1 1-671); assay: purified isoform competition ELISA, summary grade
T5 construct: also called PKC-beta I; beta 1

[8] = molecular target: T1, PKC-ε, purified isoform; assay: competition ELISA on coated purified PKC-ε vs anti-PKC ε antibody; PRE 50 µM
[9] = molecular target: T6, PKC-ε in extracts of human cell lines (human, UniProt Q02156 1-737); assay: Western-blot competition, cell extracts: PRE at 10X/20X the anti-PKC epsilon primary antibody concentration competes with that antibody; band densitometry (lower band = PRE bound)
T6 construct: Denatured on the Western blot membrane; also called PKC-epsilon (cell extract)
T6 sequence (looked up): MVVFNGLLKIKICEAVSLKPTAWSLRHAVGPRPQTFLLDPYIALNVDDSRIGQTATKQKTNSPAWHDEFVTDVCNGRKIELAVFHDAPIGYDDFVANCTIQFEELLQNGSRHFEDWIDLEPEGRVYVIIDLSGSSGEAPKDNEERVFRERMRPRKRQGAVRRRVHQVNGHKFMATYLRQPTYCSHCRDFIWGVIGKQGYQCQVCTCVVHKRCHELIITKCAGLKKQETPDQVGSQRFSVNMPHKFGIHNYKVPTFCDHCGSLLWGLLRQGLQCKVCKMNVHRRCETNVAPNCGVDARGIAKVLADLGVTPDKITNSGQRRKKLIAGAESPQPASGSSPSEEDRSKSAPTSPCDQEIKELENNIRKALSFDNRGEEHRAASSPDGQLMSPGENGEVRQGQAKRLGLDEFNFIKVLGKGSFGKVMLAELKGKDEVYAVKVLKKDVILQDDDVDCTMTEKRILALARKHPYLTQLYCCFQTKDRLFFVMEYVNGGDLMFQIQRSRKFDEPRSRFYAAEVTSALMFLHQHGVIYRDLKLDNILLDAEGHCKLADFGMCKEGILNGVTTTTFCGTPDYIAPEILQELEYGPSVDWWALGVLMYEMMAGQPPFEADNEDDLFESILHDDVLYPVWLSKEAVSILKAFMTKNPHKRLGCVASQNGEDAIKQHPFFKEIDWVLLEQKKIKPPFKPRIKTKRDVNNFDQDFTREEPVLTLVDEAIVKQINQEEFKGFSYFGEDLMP

[10] = molecular target: T7, PKC-ι in extracts of human cell lines (human, UniProt P41743 2-596); assay: Western-blot competition, cell extracts: PRE at 10X/20X the anti-PKC iota primary antibody concentration competes with that antibody; band densitometry (lower band = PRE bound)
T7 construct: Denatured on the Western blot membrane; also called PKC-iota (cell extract)
T7 sequence (looked up): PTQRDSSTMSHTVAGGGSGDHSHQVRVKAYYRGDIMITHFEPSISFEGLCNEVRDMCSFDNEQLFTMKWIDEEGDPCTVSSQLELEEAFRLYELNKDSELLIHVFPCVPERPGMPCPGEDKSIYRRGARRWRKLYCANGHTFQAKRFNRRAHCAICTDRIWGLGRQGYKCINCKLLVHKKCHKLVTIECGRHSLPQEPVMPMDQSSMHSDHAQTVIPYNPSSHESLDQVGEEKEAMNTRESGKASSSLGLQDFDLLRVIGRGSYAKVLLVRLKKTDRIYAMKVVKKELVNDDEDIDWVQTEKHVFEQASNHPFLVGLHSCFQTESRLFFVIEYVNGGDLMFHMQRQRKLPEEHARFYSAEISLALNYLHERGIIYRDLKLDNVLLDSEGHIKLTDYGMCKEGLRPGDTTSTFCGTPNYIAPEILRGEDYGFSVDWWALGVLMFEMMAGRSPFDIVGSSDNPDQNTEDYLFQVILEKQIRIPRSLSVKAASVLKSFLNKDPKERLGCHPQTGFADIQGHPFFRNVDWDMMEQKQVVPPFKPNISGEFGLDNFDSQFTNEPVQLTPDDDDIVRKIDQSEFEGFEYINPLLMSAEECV

T5 sequence (P05771 whole entry, canonical isoform): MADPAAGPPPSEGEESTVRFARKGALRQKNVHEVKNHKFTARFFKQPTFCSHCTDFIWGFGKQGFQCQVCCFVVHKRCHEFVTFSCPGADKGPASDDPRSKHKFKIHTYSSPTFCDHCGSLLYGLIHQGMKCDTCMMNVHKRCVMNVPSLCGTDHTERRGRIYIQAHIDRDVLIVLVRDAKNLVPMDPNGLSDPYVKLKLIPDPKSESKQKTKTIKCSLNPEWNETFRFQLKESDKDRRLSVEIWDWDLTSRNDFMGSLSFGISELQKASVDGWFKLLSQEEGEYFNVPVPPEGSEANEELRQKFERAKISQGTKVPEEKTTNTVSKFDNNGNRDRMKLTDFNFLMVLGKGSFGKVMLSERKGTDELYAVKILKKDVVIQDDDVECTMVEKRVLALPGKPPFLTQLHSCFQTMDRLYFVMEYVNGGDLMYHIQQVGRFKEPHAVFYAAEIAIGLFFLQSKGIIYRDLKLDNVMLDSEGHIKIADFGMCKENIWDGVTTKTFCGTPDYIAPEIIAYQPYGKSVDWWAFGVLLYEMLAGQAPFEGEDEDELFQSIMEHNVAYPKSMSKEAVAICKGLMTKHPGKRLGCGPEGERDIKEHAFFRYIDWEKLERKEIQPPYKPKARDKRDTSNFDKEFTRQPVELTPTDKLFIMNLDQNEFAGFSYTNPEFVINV
T2 sequence (P05771 2-671 limits assumed): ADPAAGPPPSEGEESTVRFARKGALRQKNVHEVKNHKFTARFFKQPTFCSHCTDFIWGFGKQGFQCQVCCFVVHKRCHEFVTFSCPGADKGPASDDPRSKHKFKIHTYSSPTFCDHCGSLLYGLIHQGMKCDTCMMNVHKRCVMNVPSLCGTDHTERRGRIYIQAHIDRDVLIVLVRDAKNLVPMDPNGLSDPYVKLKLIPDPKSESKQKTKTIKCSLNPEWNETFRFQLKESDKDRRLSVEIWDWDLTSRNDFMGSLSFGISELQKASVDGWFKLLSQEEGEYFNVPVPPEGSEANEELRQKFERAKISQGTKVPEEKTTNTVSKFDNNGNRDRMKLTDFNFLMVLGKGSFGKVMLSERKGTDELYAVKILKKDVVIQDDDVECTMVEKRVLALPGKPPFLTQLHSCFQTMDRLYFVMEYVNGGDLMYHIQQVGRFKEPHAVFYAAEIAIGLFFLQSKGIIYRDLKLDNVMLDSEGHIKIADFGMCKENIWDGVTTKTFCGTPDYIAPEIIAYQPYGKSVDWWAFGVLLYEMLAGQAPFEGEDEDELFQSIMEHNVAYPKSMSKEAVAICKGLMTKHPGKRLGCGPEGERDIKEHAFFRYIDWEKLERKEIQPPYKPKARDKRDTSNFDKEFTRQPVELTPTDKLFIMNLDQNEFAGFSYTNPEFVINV

B1: PRE 12 (peptide)
peptide: Ac-KDAQNLI-NH2
notes: Ac-KDAQNLI-NH2; also called peptide recognition element 12
For B1, the relative binding capacity [1] was 0%, the binding result [2] was “no binding (tested: 20X the primary antibody concentration)” and the binding result [3] was “binds”. The relative binding capacity [4] was 0.28%, the binding result [5] was “no binding” and the binding result [6] was “no binding”. The binding result [7] was “no binding”, the relative binding capacity [8] was 10.4% and the binding result [9] was “no binding (tested: 20X the primary antibody concentration)”. B1: no binding (tested: 20X the primary antibody concentration) [10].
